Results reported in patent publication US8889621B2, “Inhibiting binding of FGF23 to the binary FGFR-Klotho complex for the treatment of hypophosphatemia” (New York University, priority 2009, dated 2014).
“Also recorded” adds a separate entry of the source.

Assays:
[1] = tested on: binary FGFR-Klotho complex; test: Pull-down / co-precipitation of FGF23 proteins with FGFR-Klotho complex; type: binding; conditions: HEK293-Klotho cell lysate
Experimental: A pull-down assay may also be used to confirm the existence of a protein:protein interaction (i.e. FGF23^180-251 binding to the binary FGFR-Klotho complex). One aspect of the present invention utilizes pull-down assays. These assays involved subconfluent cultures of a HEK293 cell line ectopically expressing the FLAG-tagged membrane-spanning form of murine Klotho, which were harvested and lysed. Cell lysate was incubated with FGF23^28-251, FGF23^28-200, FGF23^28-179, FGF23^180-251, or protein sample buffer, and binary complexes of Klotho and endogenous FGFR were isolated from cell lysate using anti-FLAG M2 agarose beads. […]
In parallel, subconfluent HEK293-Klotho cells (Kurosu et al., “Regulation of Fibroblast Growth Factor-23 Signaling by Klotho,” J Biol Chem 281(10):6120-6123 (2006), which is hereby incorporated by reference in its entirety) were transfected with expression vectors for V5-tagged FGFR1c, FGFR3c, or FGFR4 (Kurosu et al., “Regulation of Fibroblast Growth Factor-23 Signaling by Klotho,” J Biol Chem 281(10):6120-6123 (2006), which is hereby incorporated by reference in its entirety) and binding of FGF23 proteins/peptides to Klotho-FGFR complexes isolated from cell lysate was analyzed. […]

[2] = molecular target: T1, βKlotho-FGF19 (Mus musculus, UniProt Q99N32); test: SPR specificity: βKlotho binding to immobilized FGF19^23-216; parameters: species or system murine βKlotho, human FGF19; conditions: molar ratio of 2:1 to βKlotho
T1 construct: the ectodomain of murine βKlotho (F53 to L995) was expressed in HEK293 cells; FLAG (C); made in house; host or cells: HEK293 (βKlotho ectodomain); E. coli (FGF19)
T1 sequence (Q99N32 53-995): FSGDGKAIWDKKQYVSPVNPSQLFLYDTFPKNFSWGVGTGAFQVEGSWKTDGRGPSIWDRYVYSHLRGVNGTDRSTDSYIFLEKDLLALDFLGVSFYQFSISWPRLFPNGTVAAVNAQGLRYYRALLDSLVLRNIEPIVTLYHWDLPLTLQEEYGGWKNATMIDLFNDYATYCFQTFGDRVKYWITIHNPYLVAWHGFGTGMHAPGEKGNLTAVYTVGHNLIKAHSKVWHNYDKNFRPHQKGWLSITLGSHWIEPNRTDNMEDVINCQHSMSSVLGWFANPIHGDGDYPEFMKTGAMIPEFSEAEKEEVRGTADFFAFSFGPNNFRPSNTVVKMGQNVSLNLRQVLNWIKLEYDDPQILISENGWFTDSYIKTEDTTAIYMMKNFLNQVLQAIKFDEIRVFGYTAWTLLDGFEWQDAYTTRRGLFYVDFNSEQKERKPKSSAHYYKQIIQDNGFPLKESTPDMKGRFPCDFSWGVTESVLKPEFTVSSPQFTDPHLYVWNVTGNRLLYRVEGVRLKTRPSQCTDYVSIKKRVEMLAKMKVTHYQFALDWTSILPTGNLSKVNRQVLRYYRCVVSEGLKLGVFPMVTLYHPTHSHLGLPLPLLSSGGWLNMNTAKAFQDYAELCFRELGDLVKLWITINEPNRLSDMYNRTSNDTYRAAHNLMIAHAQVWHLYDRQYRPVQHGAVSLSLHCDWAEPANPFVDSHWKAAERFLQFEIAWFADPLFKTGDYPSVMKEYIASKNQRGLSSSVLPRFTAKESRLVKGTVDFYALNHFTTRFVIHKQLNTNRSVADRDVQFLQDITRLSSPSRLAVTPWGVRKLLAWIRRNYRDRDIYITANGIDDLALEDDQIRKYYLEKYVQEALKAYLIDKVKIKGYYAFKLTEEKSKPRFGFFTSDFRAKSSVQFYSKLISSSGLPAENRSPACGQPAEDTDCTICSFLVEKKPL

Sequence of binary FGFR-Klotho complex (O35082 35-1014, one chain of several): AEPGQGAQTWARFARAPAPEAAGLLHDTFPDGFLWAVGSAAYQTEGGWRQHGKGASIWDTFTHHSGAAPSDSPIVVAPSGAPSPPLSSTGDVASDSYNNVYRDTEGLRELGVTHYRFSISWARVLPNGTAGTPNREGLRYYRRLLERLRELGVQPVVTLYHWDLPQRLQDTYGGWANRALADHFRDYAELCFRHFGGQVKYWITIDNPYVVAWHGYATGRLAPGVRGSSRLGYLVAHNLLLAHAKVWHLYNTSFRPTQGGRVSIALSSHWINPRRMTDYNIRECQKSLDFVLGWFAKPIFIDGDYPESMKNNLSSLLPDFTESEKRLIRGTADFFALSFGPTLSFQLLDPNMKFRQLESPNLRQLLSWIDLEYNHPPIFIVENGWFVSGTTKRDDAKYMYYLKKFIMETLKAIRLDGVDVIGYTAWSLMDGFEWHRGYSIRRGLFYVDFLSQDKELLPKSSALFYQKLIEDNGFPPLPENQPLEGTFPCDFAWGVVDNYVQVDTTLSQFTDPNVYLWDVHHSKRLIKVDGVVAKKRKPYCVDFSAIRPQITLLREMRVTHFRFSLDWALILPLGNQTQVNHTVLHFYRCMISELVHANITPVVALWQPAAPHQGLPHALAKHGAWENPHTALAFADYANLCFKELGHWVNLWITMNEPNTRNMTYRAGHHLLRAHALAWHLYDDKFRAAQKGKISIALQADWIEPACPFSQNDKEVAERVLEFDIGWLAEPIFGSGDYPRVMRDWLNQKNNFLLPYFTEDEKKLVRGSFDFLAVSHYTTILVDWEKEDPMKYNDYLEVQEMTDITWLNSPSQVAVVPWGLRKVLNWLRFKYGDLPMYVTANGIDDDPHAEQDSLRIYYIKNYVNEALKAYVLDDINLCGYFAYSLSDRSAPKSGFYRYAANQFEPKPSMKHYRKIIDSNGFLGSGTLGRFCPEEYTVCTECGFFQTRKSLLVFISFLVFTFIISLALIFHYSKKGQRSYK

B1: FGF23^180-251: 72-amino acid C-terminal tail of human FGF23 (S180 to I251), expressed in E. coli (protein, listed as Homo sapiens)
chain: SAEDDSERDPLNVLKPRARMTPAPASCSQELPSAEDNSPMASDPLGVVRGGRVNTHAGGTGPEGCRPFAKFI
[1]
  co-precipitation with the binary FGFR-Klotho complex: co-precipitated with each of the three binary FGFR-Klotho complexes
[2]
  inhibition of βKlotho binding to immobilized FGF19: failed to inhibit; also recorded: no inhibition
